Consider two proteins from patent publication US20240409935.

Data set [1] deals with T1, GFP-PACT, O75569.
T1 chain: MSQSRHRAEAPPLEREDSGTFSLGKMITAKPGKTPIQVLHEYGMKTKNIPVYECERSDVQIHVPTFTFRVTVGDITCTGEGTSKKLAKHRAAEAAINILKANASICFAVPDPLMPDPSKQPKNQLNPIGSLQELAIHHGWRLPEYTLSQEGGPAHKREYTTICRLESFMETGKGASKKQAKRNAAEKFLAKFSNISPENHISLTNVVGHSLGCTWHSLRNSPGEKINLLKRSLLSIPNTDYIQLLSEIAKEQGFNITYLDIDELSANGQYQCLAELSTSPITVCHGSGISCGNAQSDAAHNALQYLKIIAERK

The target of data set [2] is T2, endogenous PACT, O75569.
T2 chain: T1 chain

B1: endogenous PKR (protein)
chain: AGDLSAGFFMEELNTYRQKQGVVLKYQELPNSGPPHDRRFTFQVIIDGREFPEGEGRSKKEAKNAAAKLAVEILNKEKKAVSPLLLTTTNSSEGLSMGNYIGLINRIAQKKRLTVNYEQCASGVHGPEGFHYKCKMGQKEYSIGTGSTKQEAKQLAAKLAYLQILSEETSVKSDYLSSGSFATTCESQSNSLVTSTLASESSSEGDFSADTSEINSNSDSLNSSSLLMNGLRNNQRKAKRSLAPRFDLPDMKETKYTVDKRFGMDFKEIELIGSGGFGQVFKAKHRIDGKTYVIKRVKYNNEKAEREVKALAKLDHVNIVHYNGCWDGFDYDPETSDDSLESSDYDPENSKNSSRSKTKCLFIQMEFCDKGTLEQWIEKRRGEKLDKVLALELFEQITKGVDYIHSKKLIHRDLKPSNIFLVDTKQVKIGDFGLVTSLKNDGKRTRSKGTLRYMSPEQISSQDYGKEVDLYALGLILAELLHVCDTAFETSKFFTDLRDGIISDIFDKKEKTLLQKLLSKKPEDRPNTSEILRTLTVWKKSPEKNERHTC
Consider B1, for which the PKR phosphorylation result in data set [1] is recorded as “this was accompanied by an increase in PKR phosphorylation during lysosomal damage”.

B2: FLAG-PKR (protein)
chain: MAGDLSAGFFMEELNTYRQKQGVVLKYQELPNSGPPHDRRFTFQVIIDGREFPEGEGRSKKEAKNAAAKLAVEILNKEKKAVSPLLLTTTNSSEGLSMGNYIGLINRIAQKKRLTVNYEQCASGVHGPEGFHYKCKMGQKEYSIGTGSTKQEAKQLAAKLAYLQILSEETSVKSDYLSSGSFATTCESQSNSLVTSTLASESSSEGDFSADTSEINSNSDSLNSSSLLMNGLRNNQRKAKRSLAPRFDLPDMKETKYTVDKRFGMDFKEIELIGSGGFGQVFKAKHRIDGKTYVIKRVKYNNEKAEREVKALAKLDHVNIVHYNGCWDGFDYDPETSDDSLESSDYDPENSKNSSRSKTKCLFIQMEFCDKGTLEQWIEKRRGEKLDKVLALELFEQITKGVDYIHSKKLIHRDLKPSNIFLVDTKQVKIGDFGLVTSLKNDGKRTRSKGTLRYMSPEQISSQDYGKEVDLYALGLILAELLHVCDTAFETSKFFTDLRDGIISDIFDKKEKTLLQKLLSKKPEDRPNTSEILRTLTVWKKSPEKNERHTC
B2: the PKR phosphorylation result in data set [2] is “increased PKR phosphorylation under the same conditions”.
